Measured values taken from paper PMC11088876, “Activin E is a transforming growth factor β ligand that signals specifically through activin receptor-like kinase 7” (Biochemical Journal, 2024).

Target: the molecule itself
Experiment: SDS-PAGE under non-reducing and reducing conditions with anti-Flag western blot; conditioned medium of transfected ExpiCHO-S cells; 15% SDS gels; covalent (disulfide-linked) dimer against monomer

B1: Flag-tagged mature ActE from Construct II (ligand, human, UniProt P58166 237-350, looked up)
chain: TPTCEPATPLCCRRDHYVDFQELGWRDWILQPEGYQLNYCSGQCPPHLAGSPGIAASFHSAVFSLLKANNPWPASTSCCVPTARRPLSLLYLDHNGNVVKTDVPDMVVEACGCS
notes: A233R lies in the furin site before the cut and is surmised not to stand in the mature chain; Furin processing was incomplete: the medium also holds singly and doubly unprocessed species and a smaller clipping product; also called Flag-ActE; ActE Construct II; source: ExpiCHO-S, transfected, conditioned medium (concentrated 20x); not shown: Flag, N-terminal, kept
  stoichiometry N: 2
